Assay results taken from PMC4490410.

What was measured:
Settings in all cases: remark: other sources report otherwise
[1] = target: T1, DJ-1 (endogenous, human) (human (endogenous in human brain, M17D cells, iPSC-derived neurons)), Q99497; test: cross-linking; intact M17D cells transiently transfected with untagged αS variants; 1 mM DSG or 1.75 mM DSP, 30 min 37 °C; cytosol (PBS) or PBS/1% TX-100 lysate, western blot (Syn1) densitometry; values of the fPD mutants from a meta-analysis of DSG and DSP experiments
T1 chain: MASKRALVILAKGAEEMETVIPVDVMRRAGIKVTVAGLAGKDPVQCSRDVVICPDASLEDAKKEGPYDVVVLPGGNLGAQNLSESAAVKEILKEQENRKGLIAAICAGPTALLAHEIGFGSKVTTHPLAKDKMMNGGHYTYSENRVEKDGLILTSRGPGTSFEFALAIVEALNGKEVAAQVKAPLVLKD

[2] = target: T1, DJ-1 (endogenous, human) (human …); test: cross-linking; intact-cell crosslinking of minced, washed fresh human cortical biopsy; 1 mM DSG at increasing volume-to-protein ratio (DSP reduced by βME for total αS), 37 °C 30 min; then PBS ('cytosol') and TX-100 ('membrane') fractions, western blot
[3] = target: T1, DJ-1 (endogenous, human) (human …); test: cross-linking; intact neurons differentiated from A53T patient iPSCs or the corrected isogenic line; DSG; sequential extraction, cytosol blotted with 2F12, C20, Syn1

Measured: stoichiometry N

B1: DJ-1 (endogenous, human), Q99497 1-189 (natural protein)
chain: MASKRALVILAKGAEEMETVIPVDVMRRAGIKVTVAGLAGKDPVQCSRDVVICPDASLEDAKKEGPYDVVVLPGGNLGAQNLSESAAVKEILKEQENRKGLIAAICAGPTALLAHEIGFGSKVTTHPLAKDKMMNGGHYTYSENRVEKDGLILTSRGPGTSFEFALAIVEALNGKEVAAQVKAPLVLKD
2: all assays above
